Measured values as given in publication PMC1888729.

T1: His-tagged U2AF35 (HEK-293E), Q01081
T1 chain: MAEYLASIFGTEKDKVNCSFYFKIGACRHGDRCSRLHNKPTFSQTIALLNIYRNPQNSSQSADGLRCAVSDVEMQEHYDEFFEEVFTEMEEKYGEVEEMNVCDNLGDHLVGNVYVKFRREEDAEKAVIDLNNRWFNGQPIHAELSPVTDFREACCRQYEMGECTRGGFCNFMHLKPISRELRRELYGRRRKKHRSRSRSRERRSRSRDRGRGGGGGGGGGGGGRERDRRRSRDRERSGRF

T2: U2AF35 (recombinant human, baculovirus-infected SF9 cells) (human), Q01081
T2 chain: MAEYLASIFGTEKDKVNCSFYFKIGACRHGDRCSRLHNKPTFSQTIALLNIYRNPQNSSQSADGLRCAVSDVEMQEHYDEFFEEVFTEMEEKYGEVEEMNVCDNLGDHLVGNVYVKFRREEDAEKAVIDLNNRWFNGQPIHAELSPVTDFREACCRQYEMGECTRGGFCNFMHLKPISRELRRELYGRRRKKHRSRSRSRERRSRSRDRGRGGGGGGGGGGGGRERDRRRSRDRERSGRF


What was measured:
[1] = molecular target: T1, His-tagged U2AF35 (HEK-293E), Q01081; assay: pull-down; His-tagged U2AF35 expressed in 293E cells, lysate (50 mM Tris-HCl pH 8, 1% NP-40, 5 mM imidazole) on Ni-NTA agarose 1 h at 4°C, wash 0.5 M NaCl, eluted with 0.5 M imidazole; western blot; amounts by Coomassie stain against BSA; conditions: remark: other sources report otherwise
[2] = molecular target: T2, U2AF35 (recombinant human, …); assay: co-purification; human U2AF65/35 heterodimer purified from baculovirus-infected SF9 cells as described previously; conditions: remark: other sources report otherwise

| Binder | stoichiometry N (U2AF35 per U2AF65) [1] | stoichiometry N (U2AF35 per U2AF65) [2] |
| --- | --- | --- |
| U2AF65 (co-purified from HEK-293E), P26368 1-475 (natural protein) MSDFDEFERQLNENKQERDKENRHRKRSHSRSRSRDRKRRSRSRDRRNRDQRSASRDRRRRSKPLTRGAKEEHGGLIRSPRHEKKKKVRKYWDVPPPGFEHITPMQYKAMQAAGQIPATALLPTMTPDGLAVTPTPVPVVGSQMTRQARRLYVGNIPFGITEEAMMDFFNAQMRLGGLTQAPGNPVLAVQINQDKNFAFLEFRSVDETTQAMAFDGIIFQGQSLKIRRPHDYQPLPGMSENPSVYVPGVVSTVVPDSAHKLFIGGLPNYLNDDQVKELLTSFGPLKAFNLVKDSATGLSKGYAFCEYVDINVTDQAIAGLNGMQLGDKKLLVQRASVGAKNATLVSPPSTINQTPVTLQVPGLMSSQVQMGGHPTEVLCLMNMVLPEELLDDEEYEEIVEDVRDECSKYGLVKSIEIPRPVDGVEVPGCGKIFVEFTSVFDCQKAMQGLTGRKFANRVVVTKYCDPDSYHRRDFW | 3.5 |  |
| U2AF65 (recombinant human, baculovirus-infected SF9 cells), P26368 1-475 (natural protein) MSDFDEFERQLNENKQERDKENRHRKRSHSRSRSRDRKRRSRSRDRRNRDQRSASRDRRRRSKPLTRGAKEEHGGLIRSPRHEKKKKVRKYWDVPPPGFEHITPMQYKAMQAAGQIPATALLPTMTPDGLAVTPTPVPVVGSQMTRQARRLYVGNIPFGITEEAMMDFFNAQMRLGGLTQAPGNPVLAVQINQDKNFAFLEFRSVDETTQAMAFDGIIFQGQSLKIRRPHDYQPLPGMSENPSVYVPGVVSTVVPDSAHKLFIGGLPNYLNDDQVKELLTSFGPLKAFNLVKDSATGLSKGYAFCEYVDINVTDQAIAGLNGMQLGDKKLLVQRASVGAKNATLVSPPSTINQTPVTLQVPGLMSSQVQMGGHPTEVLCLMNMVLPEELLDDEEYEEIVEDVRDECSKYGLVKSIEIPRPVDGVEVPGCGKIFVEFTSVFDCQKAMQGLTGRKFANRVVVTKYCDPDSYHRRDFW |  | 1 |
